Results taken from publication doi:10.1101/2020.08.21.261974.

Target: BG505 SOSIP.664 native-like envelope gp140 trimer (HIV-1 (BG505))
Experiment: cryo-EM structure

**Q.** M48U1 peptide was tested. Which stoichiometry N (per BG505 trimer) did it give?
**A.** 3
